Test results reported in US20230256106A1, “DRUG DELIVERY SYSTEM FOR LOCALLY DELIVERING THERAPEUTIC AGENTS AND USES THEREOF” (priority 2020, published 2023).

type: physicochemical; settings: about 2.5±1.0 mg/mL conjugate in 10 mM PBS buffer (pH=7.4), 37° C., shaker 100 rpm; […]; average release of free drug per day

Substance	Release rate (%/day)
conjugate of N-(4-(aminomethyl)phenyl)-4-(((3R,4R)-1-(2-cyanoacetyl)-4-methylpiperidin-3-yl)(methyl)amino)-7H-pyrrolo[2,3-d]pyrimidine-7-carbothioamide and HA [Example 23]	1.01%/day

same assay, conditions: about 2.5±1.0 mg/mL conjugate in 10 mM PBS buffer (pH=7.4), 37° C., shaker 100 rpm; daily ultrafiltration (30 k), free drug by HPLC; average release of free drug per day

Substance	Release rate (%/day)
conjugate between HA (Sodium hyaluronate) and [4-[[(3R,4R)-1-(2-cyanoacetyl)-4-methyl-3-piperidyl]-methyl-amino]pyrrolo[2,3-d]pyrimidin-7-yl]methyl 2-aminoacetate [Example 68]	10.81%/day
conjugate between HA (Sodium hyaluronate) and [4-[[(3R,4R)-1-(2-cyanoacetyl)-4-methyl-3-piperidyl]-methyl-amino]pyrrolo[2,3-d]pyrimidin-7-yl]methyl 4-aminobutanoate [Example 69]	16.47%/day
conjugate of 2-azaspiro[3.3]heptan-6-yl-4-(((3R,4R)-1-(2-cyanoacetyl)-4-methylpiperidin-3-yl)(methyl)amino)-7H-pyrrolo[2,3-d]pyrimidine-7-carboxylate and HA [Example 73]	1.90%/day
conjugate of 2-chloroethyl 4-[[(3R,4R)-1-(2-cyanoacetyl)-4-methyl-3-piperidyl]-methyl-amino]pyrrolo[2,3-d]pyrimidine-7-carboxylate and HA [Example 57]	9.28%/day
conjugate of 3-((3R,4R)-3-((7-(6-amino-2-azaspiro[3.3]heptane-2-carbonyl)-7H-pyrrolo[2,3-d]pyrimidin-4-yl)(methyl)amino)-4-methylpiperidin-1-yl)-3-oxopropanenitrile and HA [Example 81]	0.28%/day
